Assay results from IntAct's records for PubMed 21247419.

B1: Dexamethasone-induced Ras-related protein 1 (Mus musculus), O35626 (parent)
chain: MKLAAMIKKMCPSDSELSIPAKNCYRMVILGSSKVGKTAIVSRFLTGRFEDAYTPTIEDFHRKFYSIRGEVYQLDILDTSGNHPFPAMRRLSILTGDVFILVFSLDNRDSFEEVQRLKQQILDTKSCLKNKTKENVDVPLVICGNKGDRDFYREVEQREIEQLVGDDPQRCAYFEISAKKNSSLDQMFRALFAMAKLPSEMSPDLHRKVSVQYCDVLHKKALRNKKLLRAGSGGGGDHGDAFGILAPFARRPSVHSDLMYIREKTSVGSQAKDKERCVIS
partner: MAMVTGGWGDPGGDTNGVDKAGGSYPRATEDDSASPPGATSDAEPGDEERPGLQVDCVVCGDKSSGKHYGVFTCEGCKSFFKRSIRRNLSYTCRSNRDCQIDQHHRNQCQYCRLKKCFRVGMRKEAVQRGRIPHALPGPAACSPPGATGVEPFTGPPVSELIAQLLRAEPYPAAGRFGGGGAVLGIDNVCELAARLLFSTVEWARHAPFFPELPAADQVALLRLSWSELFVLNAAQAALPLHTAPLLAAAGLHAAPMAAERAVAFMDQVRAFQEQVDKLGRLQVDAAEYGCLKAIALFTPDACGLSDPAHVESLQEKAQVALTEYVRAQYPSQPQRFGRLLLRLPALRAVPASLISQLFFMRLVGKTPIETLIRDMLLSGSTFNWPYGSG

Variants of: B1
Details: with nr2f6_mouse Nr2f6, P43136

Row | effect of a mutation on the interaction | Variant
1 | decreasing interaction | MKLAAMIKKMCPSDSELSIPAKNCYRMVILGSSKVGKTAIVSRFLTGRFEDAYTPTIEDFHRKFYSIRGEVYQLDILDTSANHPFPAMRRLSILTGDVFILVFSLDNRDSFEEVQRLKQQILDTKSCLKNKTKENVDVPLVICGNKGDRDFYREVEQREIEQLVGDDPQRCAYFEISAKKNSSLDQMFRALFAMAKLPSEMSPDLHRKVSVQYCDVLHKKALRNKKLLRAGSGGGGDHGDAFGILAPFARRPSVHSDLMYIREKTSVGSQAKDKERCVIS [G81A]
2 | decreasing interaction | MKLAAMIKKMCPSDSELSIPAKNCYRMVILGSSNVGKTAIVSRFLTGRFEDAYTPTIEDFHRKFYSIRGEVYQLDILDTSGNHPFPAMRRLSILTGDVFILVFSLDNRDSFEEVQRLKQQILDTKSCLKNKTKENVDVPLVICGNKGDRDFYREVEQREIEQLVGDDPQRCAYFEISAKKNSSLDQMFRALFAMAKLPSEMSPDLHRKVSVQYCDVLHKKALRNKKLLRAGSGGGGDHGDAFGILAPFARRPSVHSDLMYIREKTSVGSQAKDKERCVIS [K34N]
